Test results from paper PMC5490839 (Nature immunology, 2016).
Numbering of substitutions follows the chain as printed. Values belong to the binder of their own block, whether it stands above or below them. Where no end group is shown, it is not given here. The star is where a group is joined. Maleimide‑PEG2‑Biotin = EZ Link Maleimide-PEG2-Biotin, O=C(CCCC[C@@H]1SC[C@@H]2NC(=O)N[C@@H]21)NCCOCCOCCNC(=O)CCN1C(=O)CC(*)C1=O

What was measured:
[1] = molecular target: T1, Zap70 K369A (full length) (human, UniProt P43403 1-619, K369A); test: ELISA
T1 sequence (looked up): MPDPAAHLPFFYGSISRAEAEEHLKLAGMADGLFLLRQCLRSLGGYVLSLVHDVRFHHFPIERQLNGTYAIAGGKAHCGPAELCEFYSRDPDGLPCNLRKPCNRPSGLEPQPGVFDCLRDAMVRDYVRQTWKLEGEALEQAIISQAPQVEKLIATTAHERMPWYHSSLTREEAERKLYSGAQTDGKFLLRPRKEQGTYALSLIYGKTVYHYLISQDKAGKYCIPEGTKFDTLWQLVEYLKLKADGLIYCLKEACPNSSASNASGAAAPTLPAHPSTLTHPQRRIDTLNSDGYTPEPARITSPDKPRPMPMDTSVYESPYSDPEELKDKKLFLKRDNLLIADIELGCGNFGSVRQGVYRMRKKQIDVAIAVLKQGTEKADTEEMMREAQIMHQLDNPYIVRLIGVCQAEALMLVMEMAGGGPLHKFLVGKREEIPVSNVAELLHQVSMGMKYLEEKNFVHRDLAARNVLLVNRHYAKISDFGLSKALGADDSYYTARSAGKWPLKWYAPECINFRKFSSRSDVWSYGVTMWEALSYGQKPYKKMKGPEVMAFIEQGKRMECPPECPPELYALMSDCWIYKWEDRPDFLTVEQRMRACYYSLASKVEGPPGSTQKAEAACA

[2] = molecular target: T2, Zap70 K369R (full length) (human, UniProt P43403 1-619, K369R); test: ELISA
T2 sequence (looked up): T1 sequence (looked up) with A369R

[3] = molecular target: T3, Zap70 D461N (full length, kinase-inactive) (human, UniProt P43403 1-619, D461N); test: ELISA
T3 sequence (looked up): T1 sequence (looked up) with A369K, D461N

[4] = molecular target: T4, wild-type Zap70 (full-length human Zap70) (human, UniProt P43403 1-619); test: ELISA
T4 sequence (looked up): T1 sequence (looked up) with A369K

[5] = molecular target: T4, wild-type Zap70 (full-length human …); test: BLI
[6] = molecular target: T1, Zap70 K369A (full length); test: BLI
[7] = molecular target: T2, Zap70 K369R (full length); test: BLI
[8] = molecular target: T3, Zap70 D461N (full length, …); test: BLI

B1: GST-phosphorylated CD3γ^CD (cytosolic domain of human CD3γ, amino acids 137-182, phosphorylated by Lck) (domain or fragment)
chain: GGAGQDGVRQSRASDKQTLLPNDQLYQPLKDREDDQYSHLQGNQLRRN
modifications: also: ITAM phosphorylated by Lck, sites not given here, GST fusion
binding result [1]: binds
binding result [2]: binds
binding result [3]: binds
binding result [4]: binds

binding result [5]: binds
binding result [6]: binds
binding result [7]: binds
binding result [8]: binds
B2: bio-phosphorylated CD3γ^CD (biotinylated, phosphorylated cysCD3γ^CD, human CD3γ amino acids 137-182) (domain or fragment)
chain: C(Maleimide‑PEG2‑Biotin)AGQDGVRQSRASDKQTLLPNDQLYQPLKDREDDQYSHLQGNQLRRN
modifications: also: ITAM phosphorylated by Lck, sites not given here
